Reference: patent US20030082638A1, “Methods for screening osteogenic compounds” (priority 2001, published 2003)

Assays:
Akt [1] = assay: Western blot of Akt phosphorylation in murine osteoblasts; assay type: cell-based
Protocol: (§1) GST-RANKL-induced activation of MAP kinases is prolonged in murine osteoblasts. Primary osteoblasts were isolated from neonatal murine calvaria by sequential enzymatic digestion. Briefly, calvaria were minced and incubated at room temperature for 20 minutes with gentle shaking in an enzymatic solution containing 0.1% collagenase, 0.05% trypsin, and 4 mM NA2EDTA in calcium- and magnesium-free phosphate buffered saline (PBS). This procedure was repeated to yield a total of six digests. The cells isolated from the last four to six digests were cultured in MEM containing 15% FBS, 50 μM ascorbic acid, and 10 mM β-glycerophosphate. Cells were maintained at 37° C. in a humidified atmosphere containing 6% C02, with daily replenishment of media and cytokines.
(§2) Following treatment with GST-RANKL at the indicated times and dosages, cells were lysed in RIPA buffer containing 10 mM Tris-HCl pH 7.4, 150 mM NaCl, 1% Nonidet P-40, 0.2% sodium deoxycholate, and 1 mM EDTA, with 1 mM Na3PO4, 1 mM NaF, and 1×protease inhibitor cocktail added immediately prior to use. Protein concentration was quantitated and standardized by Micro BCA Protein Assay (Pierce). […] Levels of total and phosphorylated ERK, JNK, p38, Akt, and IkBα were determined using primary and secondary antibodies according to the manufacturer's established protocols, with conventional chemiluminiscent detection. […]

IkBα = assay: Western blot of IkBα phosphorylation in murine osteoblasts; assay type: cell-based
Protocol: as §1, §2

[2] = tested on: Primary calvarial osteoblasts; assay: Alkaline phosphatase (AP) activity in osteoblasts following GST-RANKL exposure; assay type: cell-based; conditions: 50 ng/ml
Protocol: AP activity following RANKL exposure in osteoblasts. Primary calvarial osteoblasts were cultured in MEM containing 15% FBS, 50 μM ascorbic acid, and 10 mM β-glycerophosphate. Cells were maintained at 37° C., with daily replenishment of media and cytokines. Osteoblast alkaline phosphatase (AP) activity, a direct measure of osteoblast differentiation and function, was quantitated by addition of a calorimetric substrate, 5.5 mM p-nitrophenyl phosphate. The cells were then exposed to GST-RANKL, administered in different regimens. Pulsatile exposure to 50 ng/ml GST-RANKL was provided as 1, 3, 6, 8, or 24 hours of total exposure per 48-hour treatment window. After 4 such 48-hour treatments, AP activity was quantitated (±S.D.) and normalized to total protein levels.

p38 [3] = assay: Western blot of p38 phosphorylation in murine osteoblasts; assay type: cell-based
Protocol: as §1, §2

Mice, C3H/HeN = assay: In vivo stimulation of bone formation in mice, subcutaneous administration; parameters: species or system mouse; conditions: 100 micrograms subcutaneously once a day for nine days, vs GST control
Protocol: In vivo stimulation of bone formation in mice. Mice, C3H/HeN (Harlan, Indianapolis, Ind.) were administered 100 micrograms GST (control) or 100 micrograms GST-RANKL as obtained in Example 1, subcutaneously, once a day for nine days. […] Upper panels illustrate metaphyseal bone, which is shown at higher magnification in lower panels. […] Dual-energy X-ray absorptiometry (DEXA) analysis of GST or GST-RANKL administered mice was also conducted using standard procedures.

Mice = assay: In vivo stimulation of bone formation in mice, intramedullary femur injection, DEXA; parameters: species or system mouse; conditions: 100 micrograms intramedullary once a day for nine days; versus GST control; day 9
Protocol: In vivo stimulation of bone formation in mice results in 24% increase. Mice were anesthetized with a Ketamine/Xylazine cocktail (10 mg/kg ketamine and 10 mg/kg xylazine IP) and placed in left lateral recumbancy. The major trochanter and lateral femoral condyle of the right femur were identified and the intramedullary injection site was equidistant between these landmarks. Injections of 100 micrograms GST (control) or 100 micrograms GST-RANKL were made once a day for nine days with 29 gauge needles on tuberculin syringes.
On day 9 the mice were re-anesthetized with Ketamine/Xylazine cocktail (10 mg/kg ketamine and 10 mg/kg xylazine IP) and dual energy x-ray absorptiometry (DEXA, Piximus) analysis was done on each animal. Plain radiographs were taken immediately following DEXA analysis (Faxitron, KV 0.15, time=20 sec). Animals were sacrificed by CO2 asphyxiation and both femurs harvested for histological analysis. The femurs were fixed in 10% buffered formalin for 48 hours and decalcified for 1 week. The results, showing a 24% increase in bone density of the femur of GST-RANKL treated mice versus the control, are shown in FIG. 10.

JNK [4] = assay: Western blot of JNK phosphorylation in murine osteoclast precursors; assay type: cell-based; conditions: after GST-RANKL stimulation
Protocol: (§3) GST-RANKL rapidly activates MAP kinases in murine osteoclast precursors. Wild type C57BL/6 mice were purchased from Harlan Industries (Indianapolis, Ind.). For the isolation of osteoclast precursors, bone marrow macrophages (BMMs) were isolated from whole bone marrow of four to six week old mice and incubated in tissue culture dishes at 37° C. in 5% CO2. After 24 hours in culture, the non-adherent cells were collected and layered on a Ficoll Hypaque gradient and the cells at the gradient interface were collected. Cells were replated at 65,000/cm^2 in α-minimal essential medium, supplemented with 10% heat inactivated fetal bovine serum, at 37° C. in 5% CO2 in the presence of recombinant mouse M-CSF (10 ng.ml). Cells were treated with GST-RANKL on day 4 or 5. In the experiments addressing the activation of Akt, the cells were cultured in serum and M-CSF free medium for 24 hours prior to GST-RANKL stimulation.
(§4) Immunoblotting (Western blotting) of osteoclast precursors was performed according to the following instructions. Cytokine-treated or control monolayers of BMMs were washed twice with ice-cold PBS. Cells were lysed in the buffer containing 20 mM Tris (pH 7.5),150 mM NaCl, 1 mM EDTA, 1 mM EGTA, 1% Triton X-100, 2.5 mM sodium pyrophoshate, 1 mM β-glycerophosphate, 1 mM Na3PO4, 1 mM NaF, and 1×protease inhibitor cocktail. […]

p38 [5] = assay: Western blot of p38 phosphorylation in murine osteoclast precursors; assay type: cell-based
Protocol: as §3
(§5) Immunoblotting (Western blotting) of osteoclast precursors was performed according to the following instructions. Cytokine-treated or control monolayers of BMMs were washed twice with ice-cold PBS. Cells were lysed in the buffer containing 20 mM Tris (pH 7.5),150 mM NaCl, 1 mM EDTA, 1 mM EGTA, 1% Triton X-100, 2.5 mM sodium pyrophoshate, 1 mM β-glycerophosphate, 1 mM Na3PO4, 1 mM NaF, and 1×protease inhibitor cocktail. Fifty μg of cell lysates were boiled in the presence of SDS sample buffer (0.5 M Tris-HCl, pH 6.8, 10% w/v SDS, 10% glycerol, 0.05% w/v bromphenol blue) for 5 minutes and separated on SDS-PAGE, using 8% gels. Proteins were transferred to nitrocellulose membranes using a semi-dry blotter (Bio-Rad, Richmond, Calif.) and incubated in blocking solution (5% non-fat dry milk in tris-buffered saline containing 0.1% Tween 20) for 1 hour to reduce nonspecific binding. Membranes were then exposed to primary antibodies overnight at 4° C., washed three times, and incubated with secondary goat anti-mouse or rabbit IgG horseradish peroxidase-conjugated antibody for 1 hour. […]

c-Fos = assay: Western blot of c-Fos activation following GST-RANKL treatment of cells; assay type: cell-based; conditions: osteoblasts and osteoblast precursor cells; FIG. 9, 0-120 minutes
Protocol: Time points at which activation was measured were 0, 30, 60 and 120 minutes following exposure of cells to GST-RANKL. B-actin was used as a control.

ERK [6] = assay: Western blot of ERK phosphorylation in murine osteoclast precursors; assay type: cell-based
Protocol: as §3, §5

JNK [7] = assay: Western blot of JNK phosphorylation in murine osteoblasts; assay type: cell-based
Protocol: as §1, §2

Akt [8] = assay: Western blot of Akt phosphorylation in murine osteoclast precursors; assay type: cell-based
Protocol: as §3, §4

[9] = tested on: Neo-natal mouse calvariae; assay: Ex vivo stimulation of bone formation in whole calvarial organ culture; assay type: cell-based
Protocol: One commonly used assay is a neonatal mouse calvaria assay. Briefly, four days after birth, the front and parietal bones of ICR Swiss white mouse pups are removed by microdissection and split along the sagittal suture. The bones are then incubated in a specified medium, wherein the medium contains either test or control compounds. Following the incubation, the bones are removed from the media, and fixed in 10% buffered formalin for 24-48 hours, decalcified in 14% EDTA for 1 week, processed through graded alcohols, and embedded in paraffin wax. Three micron sections of the calvaria are prepared and assessed using histomorphometric analysis of bone formation or bone resorption. Bone changes are measured on sections cut 200 microns apart. […]
Ex vivo stimulation of bone formation in whole calvarial organ culture. […] Purified GST-RANKL was then assayed for endotoxin contamination by limulus amoebocyte lysate assay, and quantitated for bioactivity by an in vitro osteoclastogenesis readout.
Test compositions were administered for-a period of 12 hours only at the initiation of the culture (1×) or once at initiation and once three days later, again for a duration of 12 hours (2×). After seven days, calvarial thickness was determined histomorphometrically and compared among the various control and experimental groups to assess bone formation. […]

ERK [10] = assay: Western blot of ERK phosphorylation in murine osteoblasts; assay type: cell-based
Protocol: as §1
(§6) Following treatment with GST-RANKL at the indicated times and dosages, cells were lysed in RIPA buffer containing 10 mM Tris-HCl pH 7.4, 150 mM NaCl, 1% Nonidet P-40, 0.2% sodium deoxycholate, and 1 mM EDTA, with 1 mM Na3PO4, 1 mM NaF, and 1×protease inhibitor cocktail added immediately prior to use. Protein concentration was quantitated and standardized by Micro BCA Protein Assay (Pierce). Lysates were denatured by heat in Laemmli buffer, resolved by SDS-PAGE, and transferred onto nitrocellulose. Levels of total and phosphorylated ERK, JNK, p38, Akt, and IkBα were determined using primary and secondary antibodies according to the manufacturer's established protocols, with conventional chemiluminiscent detection. Membranes were stripped between hybridizations in PBS containing […] β-mercaptoethanol and 2% SDS.

ERK1/2 = assay: Western blot of ERK1/2 activation in murine osteoblast precursors; assay type: cell-based
Protocol: as §1, §6
GST-RANKL-induced ERk1/2 activation is prolonged in murine osteoblast precursors. Osteoblast precursors were isolated and maintained according to the procedures set forth in Example 5. The immunoblotting was performed in the same manner as immunoblotting in Example 3.

[11] = after RANK/GST-RANKL interaction

exposure window giving the maximum anabolic effect (AP activity) ([2]; 1, 3, 6, 8 or 24 hours exposure per 48-hour window, 4 treatments): 8 h | AP activity ([2]; administered in an intermittent fashion): increase
B1: GST-RANKL: fusion protein of glutathione S-transferase (GST) and murine RANKL residues 158-316, expressed in Escherichia coli, affinity purified (protein)
chain: KPEAQPFAHLTINAASIPSGSHKVTLSSWYHDRGWAKISNMTLSNGKLRVNQDGFYYLYANICFRHHETSGSVPTDYLQLMVYVVKTSIKIPSSHNLMKGGSTKNWSGNSEFHFYSINVGGFFKLRAGEEISIQVSNPSLLDPDQDATYFGAFKVQDID
modifications: left off: a dimerising Fc or GST
Akt activation at the time of GST-RANKL stimulation (Akt [1]): detectable | duration for which Akt activation could be detected (Akt [1]; after stimulation): at least 60 minutes | time until which IkBα phosphorylation increased (end of the assay) (IkBα): 60 min | time at which IkBα phosphorylation was detected (IkBα; after stimulation): 10 min | p38 activation at the time of GST-RANKL stimulation (p38 [3]): detectable | duration for which p38 activation could be detected (p38 [3]; after stimulation): at least 60 minutes | bone mineral density (DEXA) (Mice, C3H/HeN; tibial metaphyses): significant increase | bone mass (histological examination of tibia) (Mice, C3H/HeN): marked increase | cortical thickness (Mice, C3H/HeN): massive increase | numbers of activated osteoblasts (histological examination of tibia) (Mice, C3H/HeN): net increase | increase in bone density of the femur (DEXA) (Mice): 24% | time at which JNK was phosphorylated (JNK [4]): 15 min | time by which phosphorylated JNK was undetectable (JNK [4]): ≤ 30 min | time at which p38 phosphorylation was detected (p38 [5]; after GST-RANKL stimulation): 5 min | time of peak p38 phosphorylation (p38 [5]; [11]): 10 min | time at which p38 phosphorylation was undetectable (p38 [5]; after the interaction): 30 min | activation of c-Fos (c-Fos): prolonged activation | time at which ERK phosphorylation was detected (ERK [6]; after GST-RANKL stimulation): 5 min | time of peak ERK phosphorylation (ERK [6]; [11]): 10 min | time at which ERK phosphorylation was undetectable (ERK [6]; after the interaction): 30 min | JNK activation at the time of GST-RANKL stimulation (JNK [7]): detectable | duration for which JNK activation could be detected (JNK [7]; after stimulation): at least 60 minutes | Akt phosphorylation at the time of GST-RANKL stimulation (Akt [8]; 0 minutes): detectable phosphorylation | time of peak Akt activation (Akt [8]; after GST-RANKL stimulation): 15 min | calvarial thickness at the highest dose tested ([9]; 100 ng/ml, after seven days): doubled | calvarial thickness ([9]; administered 1× or 2× for 12 hours, histomorphometry after seven days): dose-dependent increase | time at which ERK activation could still be detected (ERK [10]; after GST-RANKL stimulation): 60 min | time by which both ERKs were activated (ERK [10]; after GST-RANKL stimulation): ≤ 5 min | time of peak ERK activation (ERK [10]; [11]): 10 min | time of peak kinase activation as stated in the description (ERK1/2; osteoblast precursor cells, GST-RANKL stimulation): 5 to 10 min | time up to which ERK activation increased (length of the assay) (ERK1/2; osteoblast precursors): 60 min | time at which ERK activation was first detected (ERK1/2; osteoblast precursors, after GST-RANKL stimulation): 10 min
